Measured values as given in patent publication US20190225669A1 (ACCELERON PHARMA, published 2019).
Read-outs that look alike come from different tables or passages of the source.

How the values were obtained:
[1] = target: T1, GDF6 (UniProt Q6KF10 336-455, limits assumed); experiment: Biacore SPR; kinetics indeterminate (transient)
T1 construct: also called BMP13
T1 sequence (looked up): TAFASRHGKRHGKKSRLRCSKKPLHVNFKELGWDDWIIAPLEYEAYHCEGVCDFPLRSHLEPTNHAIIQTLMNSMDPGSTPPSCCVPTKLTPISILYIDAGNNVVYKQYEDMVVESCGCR
Protocol: (§1) Ligands were injected and allowed to flow over the captured receptor protein.

[2] = target: T2, BMP5 (UniProt P22003 317-454, limits assumed); experiment: Biacore SPR
T2 sequence (looked up): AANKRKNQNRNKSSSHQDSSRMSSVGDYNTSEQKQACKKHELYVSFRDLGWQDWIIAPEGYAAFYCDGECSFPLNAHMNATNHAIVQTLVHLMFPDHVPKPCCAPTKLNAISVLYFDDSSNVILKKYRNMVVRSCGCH
Protocol: as §1

[3] = target: T3, BMP9 (UniProt Q9UK05 320-429); experiment: Biacore SPR
T3 construct: also called GDF2
T3 sequence (looked up): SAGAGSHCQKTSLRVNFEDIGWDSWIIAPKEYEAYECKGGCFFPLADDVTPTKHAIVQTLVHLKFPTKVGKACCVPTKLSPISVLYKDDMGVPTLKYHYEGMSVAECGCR
Protocol: as §1

[4] = target: T4, BMP7 (UniProt P18075 293-431); experiment: Biacore SPR
T4 sequence (looked up): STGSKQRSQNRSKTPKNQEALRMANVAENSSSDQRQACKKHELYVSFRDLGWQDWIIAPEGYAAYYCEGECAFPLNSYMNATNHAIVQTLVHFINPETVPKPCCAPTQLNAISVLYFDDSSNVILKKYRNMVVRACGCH
Protocol: as §1

[5] = target: T5, BMP10 (UniProt O95393 317-424); experiment: Biacore SPR
T5 sequence (looked up): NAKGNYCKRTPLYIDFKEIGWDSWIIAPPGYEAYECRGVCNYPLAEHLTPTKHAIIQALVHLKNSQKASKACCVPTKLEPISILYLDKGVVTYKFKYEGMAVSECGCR
Protocol: as §1

[6] = target: T6, GDF3 (UniProt Q9NR23 251-364); experiment: Biacore SPR
T6 sequence (looked up): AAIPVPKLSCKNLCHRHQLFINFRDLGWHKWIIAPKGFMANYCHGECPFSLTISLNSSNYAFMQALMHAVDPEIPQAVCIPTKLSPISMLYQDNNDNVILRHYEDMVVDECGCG
Protocol: as §1

[7] = target: T7, GDF5 (UniProt P43026 382-501); experiment: Biacore SPR
T7 construct: also called BMP14
T7 sequence (looked up): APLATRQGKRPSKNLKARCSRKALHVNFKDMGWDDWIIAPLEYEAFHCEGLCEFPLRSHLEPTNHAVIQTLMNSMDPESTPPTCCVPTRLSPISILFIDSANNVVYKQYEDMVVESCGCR
Protocol: as §1

[8] = target: T8, GDF8 (UniProt O14793 267-375); experiment: Biacore SPR
T8 construct: also called myostatin
T8 sequence (looked up): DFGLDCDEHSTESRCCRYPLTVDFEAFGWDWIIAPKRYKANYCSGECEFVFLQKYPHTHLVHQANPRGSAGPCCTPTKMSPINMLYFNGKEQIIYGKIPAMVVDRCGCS
Protocol: as §1

[9] = target: T9, activin B (UniProt P09529 293-407); experiment: Biacore SPR
T9 sequence (looked up): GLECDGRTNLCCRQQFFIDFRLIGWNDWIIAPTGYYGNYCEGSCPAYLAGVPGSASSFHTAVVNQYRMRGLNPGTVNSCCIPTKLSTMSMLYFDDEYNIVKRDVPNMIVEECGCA
Protocol: as §1

[10] = target: T10, activin A (UniProt P08476 311-426); experiment: Biacore SPR
T10 sequence (looked up): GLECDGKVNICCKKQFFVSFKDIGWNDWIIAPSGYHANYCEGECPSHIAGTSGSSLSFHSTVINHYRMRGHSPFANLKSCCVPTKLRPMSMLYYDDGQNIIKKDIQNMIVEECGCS
Protocol: as §1

[11] = target: T11, GDF11 (UniProt O95390 299-407); experiment: Biacore SPR
T11 construct: also called BMP11
T11 sequence (looked up): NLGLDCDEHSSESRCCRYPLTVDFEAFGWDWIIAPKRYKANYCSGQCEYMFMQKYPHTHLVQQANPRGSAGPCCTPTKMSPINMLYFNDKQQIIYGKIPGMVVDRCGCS
Protocol: as §1

[12] = target: T12, BMP15 (UniProt O95972 268-392); experiment: Biacore SPR
T12 construct: also called GDF9b
T12 sequence (looked up): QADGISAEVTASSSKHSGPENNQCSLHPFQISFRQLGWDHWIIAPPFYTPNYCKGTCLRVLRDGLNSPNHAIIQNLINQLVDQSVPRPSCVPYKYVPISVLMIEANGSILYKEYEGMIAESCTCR
Protocol: as §1

[13] = target: T4, BMP7; experiment: Biacore SPR; kinetics indeterminate (transient)
[14] = target: T13, BMP6 (UniProt P22004 382-513, limits assumed); experiment: Biacore SPR; kinetics indeterminate (transient)
T13 sequence (looked up): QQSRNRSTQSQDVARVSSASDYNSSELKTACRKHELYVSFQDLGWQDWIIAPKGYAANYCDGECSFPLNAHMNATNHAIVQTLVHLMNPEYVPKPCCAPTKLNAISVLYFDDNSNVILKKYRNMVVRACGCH

[15] = target: T12, BMP15; experiment: Biacore SPR; remark: listed apart in the source
Protocol: as §1

[16] = target: T2, BMP5; experiment: Biacore SPR; remark: listed apart in the source
Protocol: (§2) A Biacore™-based binding assay was used to compare ligand binding selectivity of the BMPRII-Fc:ALK2-Fc heterodimeric complex described above with that of BMPRII-Fc and ALK2-Fc homodimeric complexes. […] Ligands were injected and allowed to flow over the captured receptor protein.

[17] = target: T12, BMP15; experiment: Biacore SPR; remark: listed apart in the source
Protocol: as §2

[18] = target: T4, BMP7; experiment: Biacore SPR; kinetics indeterminate (transient); remark: listed apart in the source
Protocol: as §2

[19] = target: T12, BMP15; experiment: Biacore SPR; remark: listed apart in the source
Protocol: as §1

B1: ActRIIB-Fc:ALK2-Fc heterodimer (Fc fusion)
chain 1: GRGEAETRECIYYNANWELERTNQSGLERCEGEQDKRLHCYASWRNSSGTIELVKKGCWLDDFNCYDRQECVATEENPQVYFCCCEGNFCNERFTHLPEAGGPEVTYEPPPTAPTGGGTHTCPPCPAPELLGGPSVFLFPPKPKDTLMISRTPEVTCVVVDVSHEDPEVKFNWYVDGVEVHNAKTKPREEQYNSTYRVVSVLTVLHQDWLNGKEYKCKVSNKALPAPIEKTISKAKGQPREPQVYTLPPSRKEMTKNQVSLTCLVKGFYPSDIAVEWESNGQPENNYKTTPPVLKSDGSFFLYSKLTVDKSRWQQGNVFSCSVMHEALHNHYTQKSLSLSPGK
chain 2: MEDEKPKVNPKLYMCVCEGLSCGNEDHCEGQQCFSSLSINDGFHVYQKGCFQVYEQGKMTCKTPPSPGQAVECCQGDWCNRNITAQLPTKGKSFPGTQNFHLETGGGTHTCPPCPAPELLGGPSVFLFPPKPKDTLMISRTPEVTCVVVDVSHEDPEVKFNWYVDGVEVHNAKTKPREEQYNSTYRVVSVLTVLHQDWLNGKEYKCKVSNKALPAPIEKTISKAKGQPREPQVYTLPPSREEMTKNQVSLTCLVKGFYPSDIAVEWESNGQPENNYDTTPPVLDSDGSFFLYSDLTVDKSRWQQGNVFSCSVMHEALHNHYTQKSLSLSPG
notes: C-terminal Lys optional; also called ActRIIB-Fc:ALK2-Fc heterodimeric complex
A Kd [1] greater than 240000 pM, a Kd [2] of 1200 pM and a koff [2] of 0.0014 s⁻¹ were found for B1 in this work. The kon [2] was 1.2e+06 M⁻¹ s⁻¹, the Kd [3] was 280 pM and the koff [3] was 0.00089 s⁻¹. The kon [3] was 3.2e+06 M⁻¹ s⁻¹, the Kd [4] was 170 pM and the koff [4] was 0.0026 s⁻¹. For the same binder, the kon [4] was 1.5e+07 M⁻¹ s⁻¹, the Kd [5] was 53 pM and the koff [5] was 0.0029 s⁻¹. For the same binder, the kon [5] was 5.5e+07 M⁻¹ s⁻¹, the Kd [6] was 6500 pM and the koff [6] was 0.012 s⁻¹. The kon [6] was 1.8e+06 M⁻¹ s⁻¹, the Kd [7] was 5000 pM and the koff [7] was 0.0044 s⁻¹. For the same binder, the kon [7] was 880000 M⁻¹ s⁻¹, the Kd [8] was 360 pM and the koff [8] was 0.00073 s⁻¹. It also gave a kon [8] of 2.1e+06 M⁻¹ s⁻¹, a Kd [9] of 47 pM and a koff [9] of 0.00015 s⁻¹. It also gave a kon [9] of 3.2e+06 M⁻¹ s⁻¹, a Kd [10] of 76 pM and a koff [10] of 0.0026 s⁻¹. It also gave a kon [10] of 3.4e+07 M⁻¹ s⁻¹, a Kd [11] of 600 pM and a koff [11] of 0.00093 s⁻¹. The kon [11] was 1.6e+06 M⁻¹ s⁻¹.

B2: BMPRII-Fc homodimer (Fc fusion, UniProt Q13873 27-150, looked up, not shown: a dimerising Fc or GST)
chain: SQNQERLCAFKDPYQQDLGIGESRISHENGTILCSKGSTCYGLWEKSKGDINLVKQGCWSHIGDPQECHYEECVVTTTPPSIQNGTYRFCCCSTDLCNVNFTENFPPPDTTPLSPPHSFNRDET
notes: extracellular domain
A Kd [12] of 290 pM, a koff [12] of 0.0028 s⁻¹ and a kon [12] of 9.9e+06 M⁻¹ s⁻¹ were found for B2 in this work. For the same binder, the Kd [13] was greater than 38000 pM, the Kd [14] was greater than 8900 pM and the Kd [15] was 290 pM. The koff [15] was 0.0028 s⁻¹, the kon [15] was 9.9e+06 M⁻¹ s⁻¹ and the Kd [16] was 9900 pM. The koff [16] was 0.019 s⁻¹, the kon [16] was 1.9e+06 M⁻¹ s⁻¹ and the Kd [17] was 720 pM. It also gave a koff [17] of 0.0042 s⁻¹, a kon [17] of 5.8e+06 M⁻¹ s⁻¹ and a Kd [18] greater than 93000 pM. For the same binder, the Kd [19] was 290 pM, the koff [19] was 0.0028 s⁻¹ and the kon [19] was 9.9e+06 M⁻¹ s⁻¹.
